Laboratory results taken from patent US20250262297A1, “ALLERGY ANTIGEN AND EPITOPE THEREOF” (HOYU CO., LTD., priority 2017, published 2025).
One block for each molecule: values may come before it.

Tested on: IgE antibodies from soybean-allergic patients
Experiment: Immunoblotting of two-dimensional electrophoresis pattern of soybean proteins with patient serum
Type: binding, human
Settings: spot in 2D electrophoresis gel of soybean proteins; patient serum compared with healthy subject serum
Text: Transfer to membrane was done using the following transfer system and transfer buffer. • Transfer system: XCell SureLock Mini-Cell and XCell II Blot Module (produced by Life Technologies) • Transfer buffer: NuPAGE Transfer Buffer (X20) (produced by Life Technologies), used in a form diluted 20-fold with milliQ water.
To be specific, proteins in the two-dimensional electrophoresis gels were transferred to a membrane (PVDF membrane) according to the following procedure. • (1) The PVDF membrane was immersed in 100% methanol followed by milliQ water, and then moved into the transfer buffer to hydrophilize the PVDF membrane. • (2) After sponge, filter paper, the gels treated by second-dimensional SDS-PAGE, the hydrophilized PVDF membrane, filter paper, and sponge were put in place in this order, the transfer system was energized at a constant voltage of 30 V for one hour.
Immunoblotting of the membrane was carried out using, as a primary antibody, a serum sample from a patient with a soybean allergy or a serum sample from a healthy subject.
Immunoblotting of the membrane was carried out according to the following procedure. • (1) The transferred membrane was shaken in a 5% skim milk/PBST solution (a PBS buffer containing 0.3% Tween 20 nonionic surfactant) at room temperature for one hour. • (2) The membrane was left to stand in a solution of 3% primary antibody serum in 5% skim milk/PBST at room temperature for one hour. • (3) The membrane was washed with a PBST solution (5 min.×3 times). • (4) The membrane was left to stand in a 1:2500 dilution of the secondary antibody, anti-human IgE-HRP (horseradish peroxidase), with a 3% skim milk/PBST solution at room temperature for one hour. • (5) The membrane was washed with a PBST solution (5 min.×3 times). • (6) The membrane was left to stand in Pierce Western Blotting Substrate Plus (produced by Thermo Fisher Scientific) for 5 minutes.
The membrane obtained through the foregoing series of treatments was subjected to fluorescent image scanning on Typhoon 9400 (produced by GE).
The immunoblots obtained with the serum from the soybean-allergic patient were compared with those obtained with the control serum from the healthy subject.

B2: guanosine nucleotide diphosphate dissociation inhibitor 2 (protein)
chain: MDEEYDVIVLGTGLKECILSGLLSVDGLKVLHMDRNDYYGGESTSLNLIQLWKRFRGDDKPPPHLGASRDYNIDMNPKFIMANGNLVRVLIHTDVTKYLSFKAVDGSFVFNKGKVHKVPANDMEALKSPLMGLFEKRRARKFFIYVQNYNESDPKTHEGMDLTRVTTKELIAKYGLDDNTIDFIGHALALHSDDRYLAEPALDTVKRMKLYAESLARFQGGSPYIYPLYGLGELPQAFARLSAVYGGTYMLNKPECKVEFDEEGKVVGVTSEGETAKCKKVVCDPSYLPGKVRKVGRVARAIAIMSHPIPSTDDSHSVQIILPQKQLGRKSDMYLFCCSYTHNVAPKGKFIAFVSTEAETDQPAIELKPGIDLLGPVDEIFFDIYDRYEPVNEPTLDNCFVSTSYDATTHFESTVDDVLNMYTLITGKVIDLSVDLSAASAAEE
modifications: Glycine max
specific binding to IgE antibodies from soybean-allergic patients: specific binding

B4: succinyl-CoA ligase [ADP-forming] subunit beta, mitochondrial (protein)
chain: MVRGLLNKLVSRSLSVAGKWQHNQLRRLNIHEYQGAELMSKHGVNVPRGVAVSSVEEARKVIKDLFPNENELVVKSQILAGGRGLGTFKSGLKGGVHIVKTDQVEDIAGKMLGQILVTKQTGPQGKIVSKVYLCEKLSLVNEMYFAITLDRTSAGPIIIACSKGGTSIEDLAEKFPDMIIKVPVDVFEGITDEGAAKVVDGLALKVADRNKSIEQVKNLYKLFVDCDCTLLEINPIAETADNQLVAADAKLNFDDNAAYRQKEIFSLRDTTQEDPREVTAAKADLNYIGLDGEIGCMVNGAGLAMATMDIIKLHGGTPANFLDVGGNASENQVVEAFKILTADDKVKAILVNIFGGIMKCDVIASGIVNAAKEVALKVPVVVRLEGTNVDQGKRILKESGMALITAEDLDDAAQKAVKAAYK
modifications: Glycine max
specific binding to IgE antibodies from soybean-allergic patients: specific binding

B6: protein disulfide isomerase-like protein precursor (protein)
chain: MPKFFHSIFRGTMAGRVSTCFFFVFALSLLLPFQISAEESSEKEFVLTLDHSNFHDTVSKHDFIVVEFYAPWCGHCKKLAPEYEKAASILSSHDPPVVLAKIDANEEKNKDLASQYDVRGYPTIKILRNGGKNVQEYKGPREADGIVDYLKKQSGPASTEIKSADEATAFIGENKVAIVGVFPKFSGEEFDNFSALAEKLRSDYDFGHTLNAKHLPRGESSVSGPVVRLFKPFDELFVDFQDFNVEALEKFVEESSTPVVTVFNNDPSNHPFVAKFFNSPNAKAMLFINFTAEGAESFKSKYREAAEQHKQQGVSFLVGDVESSQGAFQYFGLKEEQVPLIIIQHNDGKKFFKPNLEADHIPTWLKAYKDGNVAPFVKSEPIPEANDEPVKVVVGNSLEDIVFKSGKNVLLEFYAPWCGHCKQLAPILDEVAISYQSDADVVIAKLDATANDIPSETFDVQGYPTVYFRSASGKLSQYEGGRTKEDIIEFIEKNRDKPAQQEQGQDKPAQQEQGQDEQEKGKDEL
modifications: Glycine max
notes: spot also identified as protein disulfide-isomerase
specific binding to IgE antibodies from soybean-allergic patients: specific binding

B7: hypothetical protein GLYMA_10G028300 (protein)
chain: ETEVEEEDPELVTCKHQCQQPQQYTEGDKRVCLQRCDRYHRMKQEREKQIQEETREKKEEESREREEEQQEQHEEQDENPYIFEEDKDFETRVETEGGRIRVLKKFTEKSKLLQGIENFRLAILEARAHTFVSPRHFDSEVVFFNIKGRAVLGLVSESETEKITLEPGDMIHIPAGTPLYIVNRDENDKLFLAMLHIPVSVSTPGKFEEFFGPGGRDPESVLSAFSWNVLQAALQTPKGKLEKLFDQQNEGSIFAISREQVRALAPTKKSSWWPFGGESKPQFNIFSKRPTISNGYGRLTEVGPDDDEKSWLQRLNLMLTFTNITQRSMSTIHYNSHATKIALVIDGRGHLQISCPHMSSRSSHSKHDKSSPSYHRISSDLKPGMVFVVPPGHPFVTIASNKENLLMICFEVNARDNKKFTFAGKDNIVSSLDNVAKELAFNYPSEMVNGVFDRKESFFFPFELPREERGRRADA
specific binding to IgE antibodies from soybean-allergic patients: specific binding

B8: polyadenylate-binding protein 8 isoform X3 (protein)
chain: MAQVLENPTIDAAASGANPSLTTISLYVGDLHHDVNDPQLYDLFNQVAQVVSVRICRDVATQQSLGYGYVNFSNAHDAAKAIDVLNFTPLNGKIIRIMYSIRDPSARKSGAANVFIKNLDKAIDHKALYDTFSAFGNILSCKVATDASGQSKGHGFVQFESEESAQNAIDKLNGMLINDKQVFVGPFLRKQDRESALSGTKFNNVFVKNLLDSMTEADLERIFGEYGAITSAVVMRDVDGKSKGFGFVNFANVDDAAKAVEALNGKNFDGKEWYVGKAQKKSERELELKGQHEQITKETVDKYHGTNLYIKNLDDSVGDEELMELFSEFGTITSCKVMRDPNGISRGSGFVSFSIAEGATRALGEMNGKMVAGKPLYVALAQRKEDRRARLQAQFSQSRPAAITPNVSPRMPLYPLGAPAIGQQFLYGQAAPATIPQHFVPGMRPGGAPNFYVPLVQQGQQGQRPGGHRGSGPMQQLQQPLPLMHQQMLPRGHVYRYPSGSNMQNIQLAGVPGGMVTYGIGQQMPTQALASALANATPEQQRTMLGEALYPLVDKLEHEAAAKVTGMLLEMDQPEVLHLIESPDALKAKVVEAMDVLKKVTQQQSNSPADQLASLSLNDNVES
specific binding to IgE antibodies from soybean-allergic patients: specific binding

Other lines, results leading:

specific binding to IgE antibodies from soybean-allergic patients: specific binding
B1: endoplasmin homolog isoform X2 (protein)
chain: MRKWTVASALLLLSLLFLFADQGRKFQANAEGDSDELVDPPKVEDKIGAVPHGLSTDSDVVKREAESISKRSLRSNAEKFEFQAEVSRLMDIIINSLYSNKDIFLRELISNASDALDKIRFLSLTDKEVLGEGDNTKLDIQIKLDKEKKILSIRDRGIGMTKEDLIKNLGTIAKSGTSAFVEKMQTSGDLNLIGQFGVGFYSVYLVADYVEVISKNNDDKQYVWESKADGAFAISEDTWNEPLGRGTEIRLHLKEEAGEYLEESKLKELVKRYSEFINFPIYIWASKEVDVEVPADEDDSSDEEDSSESSSKEESEDEDADKSEDEEKKPKTKTVKETTYEWELLNDVKAIWLRNPKEVTEEEYTKFYHSLAKDFSDEKPLAWSHFTAEGDVEFKAVLFVPPKAPQDLYESYYNANKSNLKLYVRRVFISDEFNELLPKYLNFLLGLVDSDTLPLNVSREMLQQHSSLKTIKKKLIRKALDMIRRIADEDPDESTDKEKKDASSDNDEKKGQYSKFWNEFGKSIKLGIIEDATNRNRLAKLLRFESTKSEGKLTSLDQYISRMKTGQKDIFYITGTSKEQLENSPFLERLKKKNFEVIFFTDPVDEYLMQYLMDYEDKKFQNVSKEGLKLGKDSKDKELKESFKDLTKWWKTALSKDNVDDVKISNRLDNTPCVVVTSKFGWSANMERIMQSQTLSDASKQAYMRGKRVLEINPRHPIIKELRERVVKNPEDEGVKHTAQLMYQTALFESGFLLDDPKDFASRIYDSVKTSLDISPEATVEEEDDTEVEAESDAKEDSKPETDAVNDDNDVKDEL
modifications: Glycine max

specific binding to IgE antibodies from soybean-allergic patients: specific binding
B3: V-type proton ATPase subunit B 2 (protein)
chain: MGVAQNIPDAEEGTLEIGMEYRTVSGVAGPLVILDKVKGPKFQEIVNIRLGDGTTRRGQVLEVDGEKAVVQVFEGTSGIDNKFTTVQFTGEVLKTPVSLDMLGRIFNGSGKPIDNGPPILPEAYLDISGSSINPSERTYPEEMIQTGISTIDVMNSIARGQKIPLFSAAGLPHNEIAAQICRQAGLVKRLEKSDNLLEGGGEEDNFAIVFAAMGVNMETAQFFKRDFEENGSMERVTLFLNLANDPTIERIITPRIALTTAEYLAYECGKHVLVILTDMSSYADALREVSAAREEVPGRRGYPGYMYTDLATIYERAGRIEGRKGSITQIPILTMPNDDITHPTPDLTGYITEGQIYIDRQLYNRQIYPPINVLPSLSRLMKSAIGEGMTRKDHSDVSNQLYANYAIGKDVQAMKAVVGEEALSSEDLLYLEFLEKFERKFVAQGAYDTRNIFQSLDLAWTLLRIFPRELLHRIPAKTLDQFYSRDASN
modifications: Glycine max

specific binding to IgE antibodies from soybean-allergic patients: specific binding
B5: sucrose binding protein homolog S-64 (protein)
chain: ETEVEEDPELVTCKHQCQQQRQYTESDKRTCLQQCDSMKQEREKQVEEETREKEEEHQEQHEEEQDQNPYVFEEDKDFSTRVETEGGSIRVLKKFTEKSKLLQGNENFRLAILEARAHTFVSPRHFDSEVVLFNIKGRAVLGLVRESETEKITLEPGDMIHIPAGTPLYIVNRDENEKLLLAMLHIPVSTPGKFEEFFGPGGRDPESVLSAFSWNVLQAALQTPKGKLERLFNQQNEGSIFKISRERVRALAPTKKSSWWPFGGESKAQFNIFSKRPTFSNGYGRLTEVGPDDEKSWLQRLNLMLTFTNITQRSMSTIHYNSHATKIALVMDGRGHLQISCPHMSSRSDSKHDKSSPSYHRISADLKPGMVFVVPPGHPFVTIASNKENLLIICFEVNVRDNKKFTFAGKDNIVSSLDNVAKELAFNYPSEMVNGVFERKESLFFPFELPSEERGRRAVA
